In US20090053203A1:

Molecular target: receptor for advanced glycated end products (RAGE) (human) (UniProt Q15109)
Assay: cell-based or functional assay
Details: scale: relative to saline-treated controls

Chain of receptor for advanced glycated end products (RAGE) (human) (Q15109 23-404): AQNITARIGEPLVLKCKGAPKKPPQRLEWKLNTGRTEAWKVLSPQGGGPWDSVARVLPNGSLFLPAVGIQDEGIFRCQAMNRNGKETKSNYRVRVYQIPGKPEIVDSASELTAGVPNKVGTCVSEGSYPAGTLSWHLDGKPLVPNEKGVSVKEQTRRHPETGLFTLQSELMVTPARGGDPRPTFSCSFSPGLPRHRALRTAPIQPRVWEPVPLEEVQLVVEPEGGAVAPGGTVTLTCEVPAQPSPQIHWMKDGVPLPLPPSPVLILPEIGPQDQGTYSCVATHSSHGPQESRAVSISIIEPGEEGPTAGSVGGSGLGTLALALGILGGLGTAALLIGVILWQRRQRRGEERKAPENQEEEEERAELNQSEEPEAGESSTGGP

glycated hemoglobin (ligand)
Phospbo-PKCa/bII (T638/641) (ELISA, 293 kidney cells, 4 hr): 1.52
Phospho-ATF2 (T71) (ELISA, 293 kidney cells, 4 hr): 1.61
Phospho-Akt (S473) (ELISA, 293 kidney cells, 4 hr): 1.92
Phospho-Akt (T308) (ELISA, 293 kidney cells, 4 hr): 1.06
Phospho-ERK (T202/Y204) (ELISA, 293 kidney cells, 4 hr): 1
Phospho-IRS1 (S307) (ELISA, 293 kidney cells, 4 hr): 1.56
Phospho-IRS2 (S731) (ELISA, 293 kidney cells, 4 hr): 1.03
Phospho-JNK (T183/Y185) (ELISA, 293 kidney cells, 4 hr): 1.38
Phospho-PKCmu (S916) (ELISA, 293 kidney cells, 4 hr): 0.95
Total Akt1 (ELISA, 293 kidney cells, 4 hr): 1.27
Total Akt2 (ELISA, 293 kidney cells, 4 hr): 0.81
Total IRS-1 (ELISA, 293 kidney cells, 4 hr): 1.07
Total IRS-2 (ELISA, 293 kidney cells, 4 hr): 1.47
Total collagen-IV (ELISA, 293 kidney cells, 4 hr): 1.34
